In the Human Domainome abundance scans (Beltran et al. 2025):
± gives the uncertainty stated by the source.

B1: Tumor protein p73, residues 487 to 549; numbered along this chain, O15350 (parent)
chain: YHADPSLVSFLTGLGCPNCIEYFTSQGLQSIYHLQNLTIEDLGALKIPEQYRMTIWRGLQDLK

Variants of: B1
Assay: abundance fitness (aPCA) (normalised: wild type 0, dead -1); higher = more abundant; growth selection in yeast, the domain comes from the species named
Conditions: Homo sapiens
Variant YTADPSLVSFLTGLGCPNCIEYFTSQGLQSIYHLQNLTIEDLGALKIPEQYRMTIWRGLQDLK [H2T] has an abundance fitness of 0.273 ± 0.053.
YCADPSLVSFLTGLGCPNCIEYFTSQGLQSIYHLQNLTIEDLGALKIPEQYRMTIWRGLQDLK [H2C] showed an abundance fitness of 0.197 ± 0.096.
Variant YHADPSLVSFLTGLGCPNCIEYFTSQGLQSIYHLQNLTIEDLGALKIPVQYRMTIWRGLQDLK [E49V] has an abundance fitness of 0.009 ± 0.033.
With YHADPSLVSFLTGLGCPNCIEYFTSQGLQSIYHLQNLTIEDLGALKIPIQYRMTIWRGLQDLK [E49I] the abundance fitness was -0.254 ± 0.41.
With YHADPSLVSFLTGLGCPNCIEYFTSQGLQSIYHLQNLAIEDLGALKIPEQYRMTIWRGLQDLK [T38A] the abundance fitness was -0.014 ± 0.038.
Work on YHADPSLVSFLTGLGCPNCIEYFTSQGLQSIYHLQNLEIEDLGALKIPEQYRMTIWRGLQDLK [T38E] yielded an abundance fitness of -0.107 ± 0.074.
YHADPSLVSFLTGLGCPNCIEYFTSQGLQSIYHLQNLDIEDLGALKIPEQYRMTIWRGLQDLK [T38D] gave an abundance fitness of -0.215 ± 0.16.
Variant YHADPSLVSFLTGLGCPNCIEYFTSQGLQSIYHLQNLTIEDLGALKIPEQYRMTIWRGLTDLK [Q60T] has an abundance fitness of -0.017 ± 0.079.
YHADPSLVSFLTGLGCPNCIEYFTSQGLQSIYHLQNLTIEDLGALKIPEQYRMTIWRGLGDLK [Q60G] gave an abundance fitness of -0.027 ± 0.03.
YHADPSLVSFLTGLGCPNCIEYFTSQGLQSIYHLQNLTIEDLGALKIPEQYRMMIWRGLQDLK [T54M] gave an abundance fitness of -0.116 ± 0.058.
Variant YHADPSLVSFLTGLGCPNCIEYFTSQGLQSIYHLQNLTIEDLGALKIPEQYRMCIWRGLQDLK [T54C] has an abundance fitness of -0.13 ± 0.1.
YHADPSLVSFLTGLGCPNCIEYFTSQGLQSIYHLQNLTMEDLGALKIPEQYRMTIWRGLQDLK [I39M] showed an abundance fitness of -0.149 ± 0.27.
YHADPSLVSFLTGLGCPNCIEYFTSFGLQSIYHLQNLTIEDLGALKIPEQYRMTIWRGLQDLK [Q26F] gave an abundance fitness of -0.18 ± 0.077.
For YHADPSLVSFLTGLGCPNCIEYFTSQGLQSISHLQNLTIEDLGALKIPEQYRMTIWRGLQDLK [Y32S], the abundance fitness was 0.113 ± 0.032.
Variant YHRDPSLVSFLTGLGCPNCIEYFTSQGLQSIYHLQNLTIEDLGALKIPEQYRMTIWRGLQDLK [A3R] has an abundance fitness of 0.326 ± 0.028.
Work on YHADPRLVSFLTGLGCPNCIEYFTSQGLQSIYHLQNLTIEDLGALKIPEQYRMTIWRGLQDLK [S6R] yielded an abundance fitness of 0.013 ± 0.035.
For YHADPGLVSFLTGLGCPNCIEYFTSQGLQSIYHLQNLTIEDLGALKIPEQYRMTIWRGLQDLK [S6G], the abundance fitness was 0.136 ± 0.027.
In the case of YHADPSLVPFLTGLGCPNCIEYFTSQGLQSIYHLQNLTIEDLGALKIPEQYRMTIWRGLQDLK [S9P], the abundance fitness is reported as -0.134 ± 0.054.
For YHADPSLVVFLTGLGCPNCIEYFTSQGLQSIYHLQNLTIEDLGALKIPEQYRMTIWRGLQDLK [S9V], the abundance fitness was -0.373 ± 0.039.
YHADPSLVDFLTGLGCPNCIEYFTSQGLQSIYHLQNLTIEDLGALKIPEQYRMTIWRGLQDLK [S9D] gave an abundance fitness of -0.114 ± 0.098.
Variant YHADPSLVSFLTGLVCPNCIEYFTSQGLQSIYHLQNLTIEDLGALKIPEQYRMTIWRGLQDLK [G15V] has an abundance fitness of -0.606 ± 0.059.
Work on YHADPSLVSFLTGLGCPNCIEYFTSQGLQSIYHLQNLTIEDLSALKIPEQYRMTIWRGLQDLK [G43S] yielded an abundance fitness of -0.013 ± 0.05.
For YHADPSLVSFLTGLGCPNCIEYFTSQGLQSIYHLQNLTIEDLKALKIPEQYRMTIWRGLQDLK [G43K], the abundance fitness was 0.119 ± 0.047.
With YHADPSLVSFLTGLGCPNCIEYFTSQGLQSIYHLQNLTIEDLGALKIPEQYRMTIWRGLQDPK [L62P] the abundance fitness was -0.032 ± 0.058.
With YHADPSLVSFYTGLGCPNCIEYFTSQGLQSIYHLQNLTIEDLGALKIPEQYRMTIWRGLQDLK [L11Y] the abundance fitness was -0.518 ± 0.1.
With YHADPSLVSFLTGLGCPNCIEYFTSQGLQSIYHLQNKTIEDLGALKIPEQYRMTIWRGLQDLK [L37K] the abundance fitness was 0.001 ± 0.076.
In the case of YHADPSLVSFLTGLGCPNCIEYFTSQGLQSIYHLQNLTIEDLGALKIPEQYRMTIWRVLQDLK [G58V], the abundance fitness is reported as -0.846 ± 0.082.
YHADPSLVSFLTGLGCPNCIEYFTSQGLQSIYHLQNLTIEDLGALKIPEQYRMTIWRGLQDLA [K63A] gave an abundance fitness of -0.082 ± 0.16.
Variant YHADPSLVSFLTGLGCPNCIEYFTSQGLQSIYHLQNLTIEDLGALKIPEQYRMTIWRGLQDLG [K63G] has an abundance fitness of -0.002 ± 0.075.
Work on YHADPSLVSFLTGLGCPNCIEYFTSQGLQSIYHLQNLTIYDLGALKIPEQYRMTIWRGLQDLK [E40Y] yielded an abundance fitness of -0.215 ± 0.13.
YHADPSLVSFLTGLGCPNVIEYFTSQGLQSIYHLQNLTIEDLGALKIPEQYRMTIWRGLQDLK [C19V] showed an abundance fitness of 0.052 ± 0.036.
With YHADPSLVSFLTGLGCPNCFEYFTSQGLQSIYHLQNLTIEDLGALKIPEQYRMTIWRGLQDLK [I20F] the abundance fitness was -0.257 ± 0.052.
Variant YHADPSLVSFLTGLGCPNCVEYFTSQGLQSIYHLQNLTIEDLGALKIPEQYRMTIWRGLQDLK [I20V] has an abundance fitness of 0.009 ± 0.029.
Work on YHADPSLPSFLTGLGCPNCIEYFTSQGLQSIYHLQNLTIEDLGALKIPEQYRMTIWRGLQDLK [V8P] yielded an abundance fitness of 0 ± 0.064.
Work on YHADPSLNSFLTGLGCPNCIEYFTSQGLQSIYHLQNLTIEDLGALKIPEQYRMTIWRGLQDLK [V8N] yielded an abundance fitness of -0.052 ± 0.056.
With YHADPSLVSFLTGLGCPNCIEYFTSQGLTSIYHLQNLTIEDLGALKIPEQYRMTIWRGLQDLK [Q29T] the abundance fitness was 0.066 ± 0.04.
With YHADPSLVSFLTGLGCPNCIEYFTSQGLQSIYHYQNLTIEDLGALKIPEQYRMTIWRGLQDLK [L34Y] the abundance fitness was -0.285 ± 0.14.
Work on YHADPSRVSFLTGLGCPNCIEYFTSQGLQSIYHLQNLTIEDLGALKIPEQYRMTIWRGLQDLK [L7R] yielded an abundance fitness of -1.01 ± 0.074.
Variant YHADPSLVSFLTGLGCPNCIEYFTSQGLQSIYHLQNLTIEDLGPLKIPEQYRMTIWRGLQDLK [A44P] has an abundance fitness of -0.041 ± 0.062.
Work on YHADPSLVSFLTGLGCPNCIEYFTSQGLQSIYHLQNLTIEDLGSLKIPEQYRMTIWRGLQDLK [A44S] yielded an abundance fitness of 0.057 ± 0.042.
For LHADPSLVSFLTGLGCPNCIEYFTSQGLQSIYHLQNLTIEDLGALKIPEQYRMTIWRGLQDLK [Y1L], the abundance fitness was 0.075 ± 0.059.
In the case of YHADPSLVSFLTGLGCPNCIEYFTSQGLQSIYHLQNLTIEDLGALKIPEQYRMTSWRGLQDLK [I55S], the abundance fitness is reported as -0.881 ± 0.1.
